The text below walks through data of PMC12177098, “A human-like glutaminase-free asparaginase is highly efficacious in ASNS^low leukemia and solid cancer mouse xenograft models” (Cancer letters, 2024).

In one series the target is T1, E. coli L-ASNase (EcA) (Escherichia coli, UniProt P00805).
T1 construct: gene ansB; made in cytosol of E. coli C41(DE3) from His6-SUMO-pET14b, His-SUMO tag cut with SUMO protease, gel filtration; family forms tetramers
T1 sequence (P00805 23-348): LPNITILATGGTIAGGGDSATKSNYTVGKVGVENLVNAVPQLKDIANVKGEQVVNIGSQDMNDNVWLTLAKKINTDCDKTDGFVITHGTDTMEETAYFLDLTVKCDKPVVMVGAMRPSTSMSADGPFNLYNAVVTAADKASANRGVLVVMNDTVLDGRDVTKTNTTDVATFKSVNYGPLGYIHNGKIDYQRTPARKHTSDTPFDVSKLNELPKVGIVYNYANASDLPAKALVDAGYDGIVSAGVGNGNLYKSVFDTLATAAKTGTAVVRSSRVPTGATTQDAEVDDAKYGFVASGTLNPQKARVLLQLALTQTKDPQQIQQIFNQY
Nature of the series: continuous coupled NADH assay (L-glutamic dehydrogenase); NMR. Format: biochemical. Conditions: 5 mM GLN, 10 nM enzyme (spectrophotometric); 0.1 and 2 μM enzyme (NMR).

The target in the next series is T2, EBD-200 (Cavia porcellus, UniProt H0W0T5).
T2 construct: gene ASPG
T2 sequence (H0W0T5 1-359): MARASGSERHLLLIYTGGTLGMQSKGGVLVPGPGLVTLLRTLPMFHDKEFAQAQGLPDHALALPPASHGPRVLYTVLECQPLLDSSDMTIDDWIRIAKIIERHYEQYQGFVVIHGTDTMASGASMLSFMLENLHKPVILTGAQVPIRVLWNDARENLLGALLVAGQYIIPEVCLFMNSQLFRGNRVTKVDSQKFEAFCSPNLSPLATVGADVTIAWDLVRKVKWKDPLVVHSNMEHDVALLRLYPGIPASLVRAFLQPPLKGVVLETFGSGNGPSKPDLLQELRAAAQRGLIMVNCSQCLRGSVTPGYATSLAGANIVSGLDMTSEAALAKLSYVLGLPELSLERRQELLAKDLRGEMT
Conditions: read-out: EBD-200 ^a; 50 mM Tris-HCl pH 7.5, 200 mM NaCl, 37 °C. The text has this: continuous coupled NADH spectrophotometric assay (malic dehydrogenase / glutamic-oxalacetic transaminase) on EBD-200

Substrate in series [1]: NC(=O)C[C@H](N)C(=O)O
Nature of the series: continuous coupled NADH spectrophotometric assay (malic dehydrogenase / glutamic-oxalacetic transaminase). The class given is biochemical, Escherichia coli. Conditions: 50 mM Tris-HCl pH 7.5, 200 mM NaCl, 37 °C.

Substrate in the series “purified protein”: NC(=O)C[C@H](N)C(=O)O
Nature of the series: purified protein. Conditions: 50 mM Tris-HCl pH 7.5, 200 mM NaCl, 37 °C, in-house preparation, 0.6 % WT contamination, printed as >1.4 mM.

In the case of `NC(=O)CC[C@H](N)C(=O)O` [L-GLN], the “continuous coupled NADH assay (L-glutamic dehydrogenase); NMR” value on E. coli L-ASNase (EcA) is reported as “GLNase activity is easily observed by EcA but not by EBD-200”.
Regarding `NC(=O)C[C@H](N)C(=O)O` [L-ASN], the Km on EBD-200 was 41.3 ± 0.7 µM.

B1: E. coli L-ASNase (EcA) (Escherichia coli K-12) (protein)
chain: LPNITILATGGTIAGGGDSATKSNYTVGKVGVENLVNAVPQLKDIANVKGEQVVNIGSQDMNDNVWLTLAKKINTDCDKTDGFVITHGTDTMEETAYFLDLTVKCDKPVVMVGAMRPSTSMSADGPFNLYNAVVTAADKASANRGVLVVMNDTVLDGRDVTKTNTTDVATFKSVNYGPLGYIHNGKIDYQRTPARKHTSDTPFDVSKLNELPKVGIVYNYANASDLPAKALVDAGYDGIVSAGVGNGNLYKSVFDTLATAAKTGTAVVRSSRVPTGATTQDAEVDDAKYGFVASGTLNPQKARVLLQLALTQTKDPQQIQQIFNQY
notes: made in cytosol of E. coli C41(DE3) from His6-SUMO-pET14b, His-SUMO tag cut with SUMO protease, gel filtration; family forms tetramers
By kcat is commonly meant the number of substrate molecules converted per active site and unit of time at saturation. As for B1, in series [1], the Km was 14 µM and the kcat amounted to 44 s⁻¹.

B2: E. coli L-ASNase (EcA) (Escherichia coli K-12; Q81L) (protein)
chain: LPNITILATGGTIAGGGDSATKSNYTVGKVGVENLVNAVPQLKDIANVKGEQVVNIGSLDMNDNVWLTLAKKINTDCDKTDGFVITHGTDTMEETAYFLDLTVKCDKPVVMVGAMRPSTSMSADGPFNLYNAVVTAADKASANRGVLVVMNDTVLDGRDVTKTNTTDVATFKSVNYGPLGYIHNGKIDYQRTPARKHTSDTPFDVSKLNELPKVGIVYNYANASDLPAKALVDAGYDGIVSAGVGNGNLYKSVFDTLATAAKTGTAVVRSSRVPTGATTQDAEVDDAKYGFVASGTLNPQKARVLLQLALTQTKDPQQIQQIFNQY
Regarding B2, in “purified protein”, the Km is 1400 µM and the kcat came to 1.3 s⁻¹.
